Measurements reported in article PMC7352597.

Columns and labels:
[1] = molecular target: T1, RL2 (recombinant Lactaptin 2), the recombinant fragment of human κ-Casein (human), P07498; test: SDS-PAGE and Western Blot of cell lysates; MDA-MB-231 cells treated with 200 µg/mL RL2 for indicated times, extracellular RL2 washed off; RL2 monomer and dimer bands detected in lysates with anti-κ-Casein antibody; SDS-PAGE under reducing conditions; conditions: remark: other sources report otherwise
T1 chain: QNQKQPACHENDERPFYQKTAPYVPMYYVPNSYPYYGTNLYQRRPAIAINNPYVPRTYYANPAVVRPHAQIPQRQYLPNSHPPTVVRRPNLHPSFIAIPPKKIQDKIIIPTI

[2] = molecular target: T1, RL2 (recombinant Lactaptin 2), the …; test: cellular fractionation, SDS-PAGE and Western Blot; MDA-MB-231 cells stimulated with 100 µg/mL RL2; fractions for cytoplasm, nucleus and mitochondria; RL2 monomer and dimer bands detected by Western Blot; conditions: remark: other sources report otherwise

B1: RL2 (recombinant Lactaptin 2), the recombinant fragment of human κ-Casein, P07498 23-134 (domain or fragment)
chain: T1 chain
stoichiometry N [1]: 2 | stoichiometry N [2]: 2
